The data set deals with CD1 male mice. In words: In vivo bioluminescence imaging of mice injected with AAV9 constructs, induction by phenobarbital. The protocol: • Seed HEK 293-AAV cells in 15 cm plates. To be 70-80% confluent on the day of transfection • Final volume on each plate: 15 ml Day 2: Prepare Transfection Mix: • DNA mix/plate: pDG9 (Packaging plasmid for AAV9): 10.5 μg/pHGTI (Ad. Helper plasmid): 31.5 μg/Vector plasmid: 10.5 μg/Prepare in serum free DMEM/Optimem • Transfer mix/plate: PEI: 125 μl/Prepare in serum free DMEM/Optimem • Add DNA mix into transfection mix. Mix and leave at room temperature for 15-20 mins. • Add 3 ml of transfection mix to each plate drop-wise and gently distribute. Incubate for 24 h. Day 3: • Replace media with 15 ml DMEM supplemented with P/S and 2% FCS. Leave for 48 h. Day 5: • Collect supernatant and pool in 50 ml tubes, 25 ml each tube. Store at −20° C. • Collect cells: Add 5 ml of PBS to each plate→scrape and collect in 50 ml tubes. • To wash plates, add another 1 ml of PBS and collect. • Spin at 1500 rpm for 5 mins. • Remove supernatant and resuspend pelleted cells in 1 ml/plate TD lysis buffer→pool • Store at −80′C. Endonuclease Treatment Cells: • Freeze and thaw pellets 5 times→˜20 mins at 37° C. then ˜20 mins in dry ice (or −80° C.). • Add 25 μl/ml cells of 20% Deoxycholate (or 50 μl/ml of 10% Deoxycholate). • Add 8 μl/ml cells of benzonase. • Incubate at 37° C. for 30 mins. • Spin at 4 Krpm for 30 mins. • Filter supernatant using […] filters. • Store at 4° C. for up to 24 h. Supernatant: • Add 2.5 μl/25 ml supernatant of benzonase. • Add 50 μl/25 ml supernatant of MgSO4. • Incubate at 37° C. for 30 mins. • Spin at 4 Krpm for 30 mins. • Filter supernatant using […] filters. • Store at 4′C for up to 24 h. Hplc Purification • Place both lines in 20% ETOH→template→system wash • Put line A in PBS and line B in Glycine→template→system wash • Place the column in the machine→manual run→flowrate: 5 ml/min→Run for 25 ml or until the UV line is flat. • Prepare FACS tubes (10 for cells and more for supernatant): add 30 μl/tube Tris→put in the machine to collect vectors. • Place the waste lines in a separate tube to be able to run them again through the column. • Run samples (flowrate low, depending on how fast the system and how concentrated the sample is; for cells it is slower, for supernatant it is higher). • After running the waste through the column, wash with PBS→flowrate: 5 ml/min until the UV line is flat. • Set→fraction size: 1 ml; Flowrate: 1 ml/min; concentration % B: 100%→run. • Start collecting: Look for the peak. The peak indicates vector purification. Mark the tubes containing these vectors. • Save programme before exiting. • Wash with PBS→75 ml, 5 ml/min • Wash with Na3PO4 (to store the column in)→75 ml, 5 ml/min • Remove column and store at 4° C. • Wash the machine with PBS→template→system wash • Wash the machine with 20% ETOH→template→system wash • Put both lines in 20% ETOH and shut down • Add 2 L of PBS into a big bucket and put the Dialysis cassette (Side-A-Lyzer; Thermo scientific) to prime. • Collect the vectors from the marked FACS tubes using a syringe and needle and add into the dialysis cassette→remove excess air from the membrane, carefully place the rubber on top of the cassette and let it float in the PBS-containing bucket→leave over night at room temperature on a slow rotating rotor. Next Day: • Prime membrane by adding 5 ml PBS onto a centrifugal filter (Amico Ultra 15; MERCK)→spin for 5 mins at 4 Krpm • Remove excess PBS from inside the membrane. • Take vectors out from the cassette and load onto the membrane→spin for 5 mins at 4 Krpm • Wash the membrane with the vectors inside few times, then collect into 2 ml centrifuge tube filter 0.22 μM (Spin-X; COSTAR) • Spin for 3 mins at 13 Krpm. • Remove filter and aliquot: 1×100 μl (for injection), the rest in 10-2 μl aliquots. • Store in −80° C. • Virus quantification was performed using qRT-PCR with primers and probes for the luciferase gene. Mice Experiment […]

Where [1] appears, read: AAV9, phenobarbital intraperitoneally.

B1: PB1-MinTK: promoter: single mouse PBREM element and MinTK minimal promoter, SEQ ID NO: 7 (nucleic acid)
DNA: TCTGTACTTTCCTGACCTTGGCACAGTGCCACCATCAACTTGCCTGACACCGATCCGGCCCCGCCCAGCGTCTTGTCATTGGCGAATTCGAACACGCAGATGCAGTCGGGGCGGCGCGGTCCGAGGTCCACTTCGCATATTAAGGTGACGCGTGTGGCCTCGAACACCGAGCGACCCTGCAGCGACCCGCTTAACAGCGTCAACAGCGTGCCGCAGATCTCGAGGAGCTTGGCGAGATTTTCAGGAGCTAAGGAAGCTAAAC
modifications: PB1-MinTK
As to B1, the “luciferase expression before induction” value (0 hrs) is recorded as “no expression of the luciferase gene”. In addition, under setting [1], the “time at which induction is complete” value worked out at 24 h and the “time of maximal activity after induction” value came to 9 h. Also, the “tissue distribution of luciferase expression” value (AAV9 via tail vein) is “confined to the liver”.

Values taken from patent US12472269B2, “Liver-specific inducible promoters and methods of use thereof” (ASKBIO INC., priority 2019, dated 2025).
